Where two headings read alike, the source gives them in different places.

What is called IC50 is the concentration needed to halve the response being measured. The koff is a measure of how fast the partners let go of each other. Broadly, the kon is the second-order rate constant of association. By EC50 (read off the curve) is commonly meant the concentration that produces a half-maximal response.

For assay [1], the target named is T1, mouse TIGIT-His (mouse, UniProt P86176 29-148, limits assumed).
T1 sequence (looked up): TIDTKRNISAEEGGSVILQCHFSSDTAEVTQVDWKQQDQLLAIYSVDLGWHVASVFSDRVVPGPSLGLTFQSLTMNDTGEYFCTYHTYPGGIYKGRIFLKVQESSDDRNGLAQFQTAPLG
Nature of the assay: Block ELISA Mouse PVR-Fc:TIGIT-His (blocked ligand mouse PVR-Fc). How it is done:
(§1) To test for the ability of the clones to block the TIGIT-PVR interaction, a blocking ELISA assay was used. Briefly, recombinant human PVR-Fc fusion protein, cynomolgus monkey PVR-Fc fusion protein, or mouse PVR-Fc fusion protein was coated at 4 μg/ml at 25 μl/well in phosphate-buffered saline (PBS, pH 7.0) onto 384-well Maxisorp microtiter plates (NUNC, Denmark) and incubated overnight at 4° C. The coating solution was then discarded and the plate was blocked using 0.5% bovine serum albumin (BSA) in PBS at 80 μl/well and incubated with gentle agitation for 1 hour. Titration curves of anti-TIGIT and Fab isotype control antibodies were diluted in assay buffer (PBS, 0.5% BSA, 0.05% Tween 20) using 12 serial 2.5-fold dilutions (40000-1.7 ng/mL). […] The plate was then washed 6× with wash buffer and bound human TIGIT-AviFlag-biotin, cyno TIGIT-AviFlag-biotin, or mouse TIGIT-His was detected by adding 25 μl/well of horseradish peroxidase-conjugated streptavidin (1:10000, Amersham, UK) or horseradish peroxidase-conjugated mouse anti-His (1:2500, Qiagen, Germany) diluted in assay buffer. […] Absorbance was read at 450 nm on a […] ASCENT® microtiter plate reader (Thermo Labsystems, Helsinki, Finland). Fit curves were plotted from the resulting optical density values from the ELISA plates and IC50s were calculated using Genedata Screener software (Genedata, Switzerland).
A general note: An ELISA detects its analyte on a solid surface through an enzyme-linked reagent.

Assay [2] deals with T2, human TIGIT-AviFlag-biotin (human, UniProt Q495A1 22-141, biotin).
T2 sequence: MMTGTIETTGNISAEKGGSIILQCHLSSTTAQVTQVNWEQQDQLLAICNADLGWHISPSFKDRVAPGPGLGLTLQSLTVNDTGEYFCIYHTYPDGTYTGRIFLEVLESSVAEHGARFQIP
Nature of the assay: Block ELISA Human PVR-Fc:Bio-TIGIT-AviFlag (blocked ligand human PVR-Fc). As for the experimental part: as §1

Assay [3] addresses T3, cynomolgus TIGIT-AviFlag-biotin (cynomolgus monkey, UniProt A0A7N9I9V4 89-209, biotin).
T3 construct: also called cyno TIGIT-AviFlag-biotin
Nature of the assay: Block ELISA Cyno PVR-Fc:Bio-TIGIT-AviFlag (blocked ligand cyno PVR-Fc). As for the experimental part:
as §1

Assay [4] addresses T4, human TIGIT protein (human, UniProt Q495A1 22-141, limits assumed).
T4 construct: Recombinant protein (Genentech) used in ELISA screening and as SPR analyte; also called TIGIT antigen
T4 sequence: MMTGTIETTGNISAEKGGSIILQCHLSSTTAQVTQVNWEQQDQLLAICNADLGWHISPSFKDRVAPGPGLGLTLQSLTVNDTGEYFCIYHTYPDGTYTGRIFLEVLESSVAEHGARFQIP
Nature of the assay: SPR, monovalent affinity. (SPR reads the build-up and loss of mass on a sensor chip optically.)

The target in assay [5] is T5, cynomolgus monkey (cyno) TIGIT protein (cynomolgus monkey, UniProt A0A7N9I9V4 89-209). Nature of the assay: SPR, monovalent affinity.
T5 sequence (A0A7N9I9V4 entry or part of it): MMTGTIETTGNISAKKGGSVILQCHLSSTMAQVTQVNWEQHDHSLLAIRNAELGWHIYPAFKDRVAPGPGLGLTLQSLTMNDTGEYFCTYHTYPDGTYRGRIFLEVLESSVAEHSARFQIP
Assay [6] has as its target T4, human TIGIT protein. Nature of the assay: SPR, captured mAb.
The target in assay [7] is T5, cynomolgus monkey (cyno) TIGIT protein. Nature of the assay: SPR, captured mAb.
In assay [8] the target is T6, full-length human TIGIT on CHO cells (human, UniProt Q495A1 22-244).
T6 construct: also called CHO-hTIGIT; hu TIGIT
T6 sequence: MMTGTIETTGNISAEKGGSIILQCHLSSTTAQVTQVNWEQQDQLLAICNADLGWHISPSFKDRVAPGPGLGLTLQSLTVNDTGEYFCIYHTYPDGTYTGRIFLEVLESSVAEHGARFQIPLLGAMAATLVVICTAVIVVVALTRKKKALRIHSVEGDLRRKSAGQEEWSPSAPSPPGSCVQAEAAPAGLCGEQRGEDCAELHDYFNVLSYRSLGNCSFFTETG
Nature of the assay: FACS on CHO cells expressing human TIGIT, FITC anti-hIgG detection. As for the experimental part: (§2) Additional in vitro binding studies of the OMT- and SD-derived anti-TIGIT antibody clones were conducted. The OMT- and SD-derived anti-TIGIT clones were tested for binding to human and cyno TIGIT expressed on the surface of CHO cells by FACS analysis. CHO cells were transfected with full-length human TIGIT (CHO-hTIGIT) or cynomologous TIGIT (CHO-cyTIGIT). The TIGIT-expressing CHO cells were incubated with each anti-TIGIT antibody at the indicated concentrations and then detected via a FITC-labeled anti-hIgG antibody (see FIG. 1A) using standard methods. The results, shown in Table 6 and FIGS. 1B-1E, corroborate the results from the BIACORE™ analysis, described above.

Assay [9] deals with T7, cynomolgus TIGIT on CHO cells (cynomolgus monkey, UniProt A0A7N9I9V4 89-312).
T7 construct: whole, on cells; also called CHO-cyTIGIT; cyTIGIT
T7 sequence (A0A7N9I9V4 entry or part of it): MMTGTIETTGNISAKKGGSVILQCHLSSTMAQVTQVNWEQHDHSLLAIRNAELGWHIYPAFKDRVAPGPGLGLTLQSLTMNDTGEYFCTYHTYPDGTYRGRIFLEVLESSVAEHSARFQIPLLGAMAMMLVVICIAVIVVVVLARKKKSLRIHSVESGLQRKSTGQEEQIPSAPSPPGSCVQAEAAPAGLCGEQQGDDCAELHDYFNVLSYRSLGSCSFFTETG
Nature of the assay: FACS blocking assay: labelled PVR-Fc (blocked ligand) on CHO cells expressing cyno TIGIT. As for the experimental part: (§3) These studies were further validated in CHO-TIGIT PVR blocking experiments in which TIGIT-expressing CHO cells were incubated with labeled PVR-Fc fusion protein in the presence of anti-TIGIT antibody or an human IgG1 control (FIG. 4A).

The target in assay [10] is T8, human TIGIT on activated human primary T cells (human, UniProt Q495A1 22-244).
T8 construct: also called Human T cell
T8 sequence: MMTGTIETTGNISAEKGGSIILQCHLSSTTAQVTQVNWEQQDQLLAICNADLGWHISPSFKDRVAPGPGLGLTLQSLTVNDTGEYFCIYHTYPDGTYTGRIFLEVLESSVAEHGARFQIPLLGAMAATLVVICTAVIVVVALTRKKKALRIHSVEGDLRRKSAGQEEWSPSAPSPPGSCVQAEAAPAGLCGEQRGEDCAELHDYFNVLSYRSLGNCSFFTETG
Nature of the assay: FACS on activated human PBMC, CD4 T cells, FITC anti-hIgG detection. As for the experimental part:
The OMT- and SD-derived anti-TIGIT clones were also tested for binding to human primary T cells by FACS analysis. Human PBMC were activated for with plate-bound anti-CD3 (5 μg/ml) and soluble anti-CD28 (2 μg/ml) for 2 days as described in Yu et al. Nature Immunology. 10: 48-57, 2009, which is incorporated herein by reference in its entirety. Cells were then washed and incubated with incubated with each anti-TIGIT antibody at the indicated concentrations and then detected via a FITC-labeled anti-hIgG antibody. Cells were also stained with anti-CD4, anti-CD8, and anti-CD25 (BD bioscience). Human CD4+(CD25+CD4+) and human CD8+(CD25+CD8+) T cells were assessed for binding by the anti-TIGIT clones by FACS. All samples were acquired on LSR-II or LSR-Fortessa instruments (BD Biosciences) and analyzed using FlowJo software (Treestar).

Assay [11] concerns the target T7, cynomolgus TIGIT on CHO cells. Nature of the assay: FACS on CHO cells expressing cyno TIGIT, FITC anti-hIgG detection. As for the experimental part: as §2
Assay [12] has as its target T4, human TIGIT protein. Nature of the assay: SPR, bivalent affinity.
Assay [13] deals with T5, cynomolgus monkey (cyno) TIGIT protein. Nature of the assay: SPR, bivalent affinity.
Assay [14] has as its target T6, full-length human TIGIT on CHO cells. Nature of the assay: FACS blocking assay: labelled PVR-Fc (blocked ligand) on CHO cells expressing human TIGIT. As for the experimental part: as §3
The target in assay [15] is T4, human TIGIT protein. Nature of the assay: SPR, captured mAb. The text has this:
(§4) To prevent unwanted pyroglutamate formation for clones 4.1A4, 4.1 D3, and 7.4A3 (also referred to as 1A4, 1 D3, and 4A3, respectively) and to resolve the issue of unpaired cysteine residues for clones 4.1A4 and 7.4A3, the following optimized anti-TIGIT antibody variants were generated: 4.1A4.C96S.Q1E, 4.1A4.C96Y.Q1E, 4.1 D3.Q1E, 7.4A3.C96S.Q1E, and 7.4A3.C96Y.Q1E (also referred to as 1A4.C96S.Q1E, 1A4.C96Y.Q1E, 1 D3.Q1E, 4A3.C96S.Q1E, and 4A3.C96Y.Q1E, respectively). As described below in Table 2, the affinities of these five optimized variants for human and cynomolgus monkey (cyno) TIGIT were then determined by Surface Plasmon Resonance (SRP) (BIACORE™ analysis) and compared to that of their respective parental clones.
(§5) Briefly, a series S CM5 biosensor chip was activated with N-ethyl-N′-(3-dimethylaminopropyl)-carbodiimide hydrochloride (EDC) and N-hydroxysuccinimide (NHS) reagents according to the supplier's (GE Healthcare Biosciences, Piscataway, N.J.) instructions, and a human antibody capture kit was applied to couple goat anti-human Fc IgGs in order to achieve approximately 10,000 response units (RU) on each flow cell, followed by blocking un-reacted groups with 1M ethanolamine.
(§6) (flow rate: 30 μl/min) with no regeneration between injections. The sensorgrams were recorded and evaluated by BIAcore™ T200 Evaluation Software (version 2.0) after subtraction of reference cell signal. Association rates (kₒₙ) and dissociation rates (koff) were calculated using a simple one-to-one Langmuir binding model. The equilibrium dissociation constant (KD) was calculated as the ratio koff/kₒₙ.
The source holds these as a separate data set.

For assay [16], the target named is T5, cynomolgus monkey (cyno) TIGIT protein. Nature of the assay: SPR, captured mAb.
Description: as §4, §5, §6
This is another data set of the same source.

B1: 4.1D3.Q1E Fab (Fab, V domains shown)
VH: EVQLQQSGPGLVKPSQTLSLTCAISGDSVSSNSAAWNWIRQSPSRGLEWLGKTYYRFKWYSDYAVSVKGRITINPDTSKNQFSLQLNSVTPEDTAVFYCTRESTTYDLLAGPFDYWGQGTLVTVSS
VL: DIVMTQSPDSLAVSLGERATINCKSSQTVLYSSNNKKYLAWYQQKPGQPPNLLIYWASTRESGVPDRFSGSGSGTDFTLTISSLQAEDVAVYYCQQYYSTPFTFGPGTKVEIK
notes: also called 4.1 D3.Q1E in Fab format
Turning to B1, the IC50 in assay [1] is > 133 nM; in [2], 6.9 nM; in [3], 1.5 nM.

B2: rat10A5 (antibody, V domains shown)
VH: QVSLKESGPGILQPSHTLSLTCSFSGFSLTTYGMGVSWIRQPSEKGLEWLASIWWNGNTYYNPSLRSRLTVSKDTSNDQAFLNVTSVDTTDTATYYCAHTGGAVITWFAYWGQGTLVTVSS
VL: NIVMTQSPKSMSISIGDRVTMNCKASQSVGKNIAWYQQKTGQSPQLLIYYASNRYTGVPDRFTGGGSGTDFTLTINSVQAEDAAFFYCQHIYNSPYPFGTGTKLEIK
notes: SD rat-derived; rat V domains as FR/HVR pieces; also called 1.10A5; Chimeric 1.10A5
Consider B2, for which the Kd in assay [4] is 0.093 nM; in assay [5], 0.41 nM; in [6] it was 0.09 nM; in assay [7], 0.41 nM; in [12], ≤ 0.003 nM; in assay [13] it was 0.013 nM. Further, the koff amounted to 8.4e-05 s⁻¹ in assay [6] and 0.000281 s⁻¹ in assay [7]. In addition, the on-rate (kon) in [6] came to 905000 M⁻¹ s⁻¹; in [7], 678000 M⁻¹ s⁻¹. For the same molecule, the “EC50 (read off the curve)” value was ~0.2 nM in assay [8], ~0.09 nM in assay [10] and ~0.2 nM in assay [11]. Further, in assay [9], the “IC50 (read off the curve)” value was ~0.09 nM.

B3: rat15C8 (antibody, V domains shown)
VH: EVQLQQSGPELQRPGASVKLSCKASGYTFTEHSIYWLKQRPKQSLEIIGRIDPKNGRTYFVDKFKNRATLTTNTSSNTAYMQLSSLTSEDTAIYFCARIDGFYFDFWGQGVMVTASS
VL: NIHLTQSPSLLSASVGDRVTLSCKGSQNVNKYLVWYQQKLGEAPKLLIYSTDNLQSGIPSRFSGSGSGTDYTLTISSLQPEDAATYFCYQYNNGFTFGSGTKLEIK
notes: SD rat-derived; rat V domains as FR/HVR pieces; also called 1.15C8; Chimeric 1.15C8
As for B3, the Kd is 0.034 nM in assay [4]; 0.25 nM in assay [5]; 0.03 nM in [6]; 0.25 nM in assay [7]; ≤ 0.007 nM in assay [12]; ≤ 0.013 nM in assay [13]. The koff in assay [6] stood at 1.8e-05 s⁻¹; in [7], 9.6e-05 s⁻¹. The kon amounted to 522000 M⁻¹ s⁻¹ in assay [6] and 381000 M⁻¹ s⁻¹ in [7]. The “EC50 (read off the curve)” value in [8] is ~0.3 nM; in assay [11], ~0.4 nM. The “IC50 (read off the curve)” value was ~0.3 nM in [9] and ~0.4 nM in [14].

B4: 4.1A4 (antibody, V domains shown)
VH: QVQLVQSGSELKKPGASVKVSCKASGYTLTNYPMNWVRQAPGRGLEWMGWINTNTGSPAYAQDFTERFVFSLDTSVTTAYLQISSLKAEDTAVYYCARTAITSVYHFDYWGQGTLVTVSS
VL: DIQLTQSPSFLSASVGDRVTITCRASQGISSYLAWYQQKPGKAPRVLIYGATTLQSGVPSRFSGSESGTEFTLTISSLQPEDLATYYCQKLNSHPCSFGQGTKVEIK
notes: OMT rat-derived human antibody; also called 4.1A4.Q1.C96
In the case of B4, the Kd in assay [4] amounted to 4.9 nM; in [5], 2.6 nM; in assay [15], 3.57 nM; in assay [16] it was 2.42 nM; in assay [12], 0.31 nM; in [13] it was 0.035 nM. In addition, the figures for the “EC50 (read off the curve)” value in assay [8], in assay [10] and in assay [11] were ~1 nM, ~0.5 nM and ~0.8 nM, respectively. Also, the results for the off-rate (koff) in assay [15] and in [16] were 0.00122 s⁻¹ and 0.000643 s⁻¹, respectively. For the same molecule, the kon turned out to be 342000 M⁻¹ s⁻¹ in assay [15] and 266000 M⁻¹ s⁻¹ in assay [16]. The “IC50 (read off the curve)” value in assay [14] was ~0.2 nM.
